The source of these data is paper PMC12827578.

The test addresses CTLA4-FRB*-HA (UniProt P16410).

“FLAG-FKBP-USP15 WT (from UniProt P62942 2-108) (enzyme)” registered a CTLA4-FH protein level by Western blot after Dox induction of FF-USP15 WT (18 h) and A/C 500 nM (24 h) above 2 fold.
